Measurements published in publication PMC4933246.
Values belong to the substance of their own block, whether it stands above or below them.

How the values were obtained:
[1] = target: PHOX2A, MYC- or HA-tagged (human) (UniProt O14813)
[2] = target: PHOX2B +7Ala fused to GAL4 BD or VP16 AD (human) (UniProt Q99453); assay: two-hybrid; mammalian two-hybrid (CheckMate, Promega) in neuroblastoma SK-N-BE(2)C cells; GAL4 BD fusion (pBIND) and VP16 AD fusion (pACT), 80 fmol each, with 160 fmol pG5LUC; Dual-Luciferase assay
[3] = target: PHOX2B +13Ala fused to GAL4 BD or VP16 AD (human) (UniProt Q99453); assay: as above

- luciferase activity of the DBH promoter reporter in HeLa cells co-transfected with PHOX2A and the PHOX2B +7 alanine mutant (fold over the empty vector) [1]: 23
Substance: PHOX2B +7 alanine mutant, MYC- or HA-tagged (from UniProt Q99453 1-314) (natural protein)

- fold increase in luciferase activity [2]: 1.7 fold
Substance: PHOX2B +7Ala fused to GAL4 BD or VP16 AD (from UniProt Q99453 1-314) (natural protein)

- fold increase in luciferase activity [3]: 2 fold
Substance: PHOX2B +13Ala fused to GAL4 BD or VP16 AD (from UniProt Q99453 1-314) (natural protein)
